B1: S100A5 (natural protein)
chain: METPLEKALTTMVTTFHKYSGREGSKLTLSRKELKELIKKELCLGEMKESSIDDLMKSLDKNSDQEIDFKEYSVFLTMLCMAYNDFFLEDNK

Assays:
[1] = target: fWL, fluorescently labelled H14 foldamer WL (β-peptidic hexamer: β3-amino acids with proteinogenic side chains (W, L) in positions 2 and 5, ACHC (trans-2-aminocyclohexancarboxylic acid) residues; 5(6)-carboxyfluorescein on the ε-amino group of …); assay: FP
[2] = target: fIF, fluorescently labelled H14 foldamer IF (β-peptidic hexamer: β3-amino acids with proteinogenic side chains (I, F) in positions 2 and 5, ACHC (trans-2-aminocyclohexancarboxylic acid) residues; 5(6)-carboxyfluorescein on the ε-amino group of …); assay: FP
[3] = target: B1; assay: FP; competition against fIF
[4] = target: B1; assay: FP; competition against fWL

| Binder | Kd [1] [µM] | Kd [2] [µM] | Kd [3] [µM] | Kd [4] [µM] |
| --- | --- | --- | --- | --- |
| B1 | 7.9 | 32 | – | – |
| TRTKIDWNKILS [TRTK12 peptide] | – | – | 2.4 | 4.9 |

— publication PMC8991199 (2022)
